Measured values from patent US20200199241A1 (Chugai, published 2020).

B1: IgG1-F1204 (antibody)
heavy: QVQLQESGPGLVKPSETLSLTCAVSGHSISHDHAWSWVRQPPGEGLEWIGFISYSGITNYNPSLQGRVTISRDNSKNTLYLQMNSLRAEDTAVYYCARSLARTTAMDYWGEGTLVTVSSASTKGPSVFPLAPSSKSTSGGTAALGCLVKDYFPEPVTVSWNSGALTSGVHTFPAVLQSSGLYSLSSVVTVPSSSLGTQTYICNVNHKPSNTKVDKKVEPKSCDKTHTCPPCPAPELLGGPSVFLFPPKPKDTLYITRQPEVTCVVVDVSHEDPEVKFNWYVDGVEVHNAKTKPREEQYNSTYRVVSVLTVLHQDWLNGKEYKCKVSNKALPAPIEKTISKAKGQPREPQVYTLPPSRDELTKNQVSLTCLVKGFYPSDIAVEWESNGQPENNYKTTPPVLDSDGSFFLYSKLTVDKSRWQQGNVFSCSVMHEALHYHVTRKELSLSP
light: not shown
notes: EU numbering; copies: 2 + 2
B2: IgG1-F1206 (antibody)
heavy: QVQLQESGPGLVKPSETLSLTCAVSGHSISHDHAWSWVRQPPGEGLEWIGFISYSGITNYNPSLQGRVTISRDNSKNTLYLQMNSLRAEDTAVYYCARSLARTTAMDYWGEGTLVTVSSASTKGPSVFPLAPSSKSTSGGTAALGCLVKDYFPEPVTVSWNSGALTSGVHTFPAVLQSSGLYSLSSVVTVPSSSLGTQTYICNVNHKPSNTKVDKKVEPKSCDKTHTCPPCPAPELLGGPSVFLFPPKPKDVLYITRQPEVTCVVVDVSHEDPEVKFNWYVDGVEVHNAKTKPREEQYNSTYRVVSVLTVLHQDWLNGKEYKCKVSNKALPAPIEKTISKAKGQPREPQVYTLPPSRDELTKNQVSLTCLVKGFYPSDIAVEWESNGQPENNYKTTPPVLDSDGSFFLYSKLTVDKSRWQQGNVFSCSVMHEALHYHVTRKELSLSP
light: not shown
notes: EU numbering; copies: 2 + 2
B3: IgG1-F1205 (antibody)
heavy: QVQLQESGPGLVKPSETLSLTCAVSGHSISHDHAWSWVRQPPGEGLEWIGFISYSGITNYNPSLQGRVTISRDNSKNTLYLQMNSLRAEDTAVYYCARSLARTTAMDYWGEGTLVTVSSASTKGPSVFPLAPSSKSTSGGTAALGCLVKDYFPEPVTVSWNSGALTSGVHTFPAVLQSSGLYSLSSVVTVPSSSLGTQTYICNVNHKPSNTKVDKKVEPKSCDKTHTCPPCPAPELLGGPSVFLFPPKPKDVLYISRQPEVTCVVVDVSHEDPEVKFNWYVDGVEVHNAKTKPREEQYNSTYRVVSVLTVLHQDWLNGKEYKCKVSNKALPAPIEKTISKAKGQPREPQVYTLPPSRDELTKNQVSLTCLVKGFYPSDIAVEWESNGQPENNYKTTPPVLDSDGSFFLYSKLTVDKSRWQQGNVFSCSVMHEALHYHVTRKELSLSP
light: not shown
notes: EU numbering; copies: 2 + 2
B4: IgG1-F1207 (antibody)
heavy: QVQLQESGPGLVKPSETLSLTCAVSGHSISHDHAWSWVRQPPGEGLEWIGFISYSGITNYNPSLQGRVTISRDNSKNTLYLQMNSLRAEDTAVYYCARSLARTTAMDYWGEGTLVTVSSASTKGPSVFPLAPSSKSTSGGTAALGCLVKDYFPEPVTVSWNSGALTSGVHTFPAVLQSSGLYSLSSVVTVPSSSLGTQTYICNVNHKPSNTKVDKKVEPKSCDKTHTCPPCPAPELLGGPSVFLFPPKPKDTLMISRTPEVTCVVVDVSHEDPEVKFNWYVDGVEVHNAKTKPREEQYNSTYRVVSVLTVLHQDWLNGKEYKCKVSNKALPAPEEKTISKAKGQPREPQVYTLPPSRDELTKNQVSLTCLVKGFYPSDIAVEWESNGQPENNYKTTPPVLDSDGSFFLYSKLTVDKSRWQQGNVFSCSVLHEALHSHYTQKSLSLSP
light: not shown
notes: EU numbering; copies: 2 + 2
B5: IgG1-F1208 (antibody)
heavy: QVQLQESGPGLVKPSETLSLTCAVSGHSISHDHAWSWVRQPPGEGLEWIGFISYSGITNYNPSLQGRVTISRDNSKNTLYLQMNSLRAEDTAVYYCARSLARTTAMDYWGEGTLVTVSSASTKGPSVFPLAPSSKSTSGGTAALGCLVKDYFPEPVTVSWNSGALTSGVHTFPAVLQSSGLYSLSSVVTVPSSSLGTQTYICNVNHKPSNTKVDKKVEPKSCDKTHTCPPCPAPELLGGPSVFLFPPKPKDTAYISRTPEVTCVVVDVSHEDPEVKFNWYVDGVEVHNAKTKPREEQYNSTYRVVSVLTVLHQDWLNGKEYKCKVSNKALPAPIEKTISKAKGQPREPQVYTLPPSRDELTKNQVSLTCLVKGFYPSDIAVEWESNGQPENNYKTTPPVLDSDGSFFLYSKLTVDKSRWQQGNVFSCSVMHEALHYHVTQKSLSLSP
light: not shown
notes: EU numbering; copies: 2 + 2

Molecular target: T1, soluble human FcRn complexed with β2-microglobulin (human, UniProt P61769 21-119, limits assumed)
T1 construct: also called hFcRn
T1 sequence (chain, as listed by the source limits assumed, chain 1 of 2): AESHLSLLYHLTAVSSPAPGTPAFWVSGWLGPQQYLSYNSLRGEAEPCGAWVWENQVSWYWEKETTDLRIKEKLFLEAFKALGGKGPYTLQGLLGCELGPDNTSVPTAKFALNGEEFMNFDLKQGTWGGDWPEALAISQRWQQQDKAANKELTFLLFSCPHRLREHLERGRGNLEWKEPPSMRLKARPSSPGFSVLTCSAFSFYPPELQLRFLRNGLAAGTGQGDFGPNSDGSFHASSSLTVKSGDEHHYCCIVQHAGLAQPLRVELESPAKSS
T1 sequence (P61769 21-119 limits assumed, chain 2 of 2): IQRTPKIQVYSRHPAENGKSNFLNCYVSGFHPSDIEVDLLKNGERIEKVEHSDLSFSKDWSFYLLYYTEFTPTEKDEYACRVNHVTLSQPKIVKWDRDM
Test: Biacore SPR, pH 7.0;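 note: test antibodies captured on a Protein L chip with human FcRn flowed over as analyte, KD obtained as the ratio of dissociation to association rate constants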
Experimental: A kinetic analysis of binding between human FcRn and the aforementioned antibodies was carried out using the BIACORE™ T100 or T200 surface plasmon resonance system (GE Healthcare). The antibodies being tested were captured on the CM4 Sensor Chip (GE Healthcare) on which a suitable amount of Protein L (ACTIGEN® protein (Alltech)) was suitably immobilized by amine coupling. Next, diluted human FcRn and a running buffer used as a blank were injected to allow the human FcRn to interact with the antibody captured on the sensor chip. A buffer consisting of 50 mmol/L sodium phosphate, 150 mmol/L NaCl and 0.05% (w/v) polysorbate 20 (Tween 20®) (pH 7.0 or pH 7.4) was used for the running buffer, and each buffer was also used to dilute the human FcRn. 10 mmol/L glycine-HCl (pH 1.5) was used to regenerate the sensor chip. All measurements of binding were carried out at 25° C. The KD(M) of each antibody to human FcRn was calculated based on kinetics parameters, i.e., the association rate constant ka (1/Ms) and the dissociation rate constant kd (1/s) calculated from a sensorgram obtained by the measurement. The BIACORE™ T100 or T200 Evaluation Software (GE Healthcare) was used to calculate each parameter.

B1 and B2 are within 1.5-fold of each other in Kd: 118 nM for the first, 169 nM for the second.

Going from B3 to B4, the Kd rises from 198 nM to 1110 nM (5.6-fold).

Work on B5 yielded a Kd of 571 nM.
